# Assay results taken from publication PMC11686370.
# Several values for one entry are separate records, joined by “and”; a condition that tells them apart may be missing. Equal entries are not always repeated. Where two headings read alike, the source gives them in different places.
# B1: ALCAM protein, commercially available (Sino, Cat. No. 10045-H08H-100) (receptor)
# chain: WYTVNSAYGDTIIIPCRLDVPQNLMFGKWKYEKPDGSPVFIAFRSSTKKSVQYDDVPEYKDRLNLSENYTLSISNARISDEKRFVCMLVTEDNVFEAPTIVKVFKQPSKPEIVSKALFLETEQLKKLGDCISEDSYPDGNITWYRNGKVLHPLEGAVVIIFKKEMDPVTQLYTMTSTLEYKTTKADIQMPFTCSVTYYGPSGQKTIHSEQAVFDIYYPTEQVTIQVLPPKNAIKEGDNITLKCLGNGNPPPEEFLFYLPGQPEGIRSSNTYTLTDVRRNATGDYKCSLIDKKSMIASTAITVHYLDLSLNPSGEVTRQIGDALPVSCTISASRNATVVWMKDNIRLRSSPSFSSLHYQDAGNYVCETALQEVEGLKKRESLTLIVEGKPQIKMTKKTDPSGLSKTIICHVEGFPKPAIQWTITGSGSVINQTEESPYINGRYYSKIIISPEENVTLTCTAENQLERTVNSLNVSAISIPEHDEADEISDENREKVNDQAK
# Columns and labels:
# Assay in all cases: SPR
# [1] = target: his-tagged knob domain protein of HAdV-B7 fiber (Human adenovirus B7)
# [2] = target: ALCAM protein, commercially available (Sino, Cat. No. 10045-H08H-100) (human) (UniProt Q13740)
# [3] = target: his-tagged knob domain protein of HAdV-B7 fiber (Human adenovirus B7); remark: listed apart in the source
Molecule,Kd [1],Kd [2],Kd [3]
"DSG-2 protein (MCE, Cat. No. HY-P77917) (from UniProt Q14126 50-609) (receptor)",2.61 µM,,
his-tagged knob domain protein of HAdV-B7 fiber (domain or fragment),3.47 µM,0.7 µM and 0.849 µM,
B1,,,0.961 µM
